Target: the molecule itself
Test: non-reducing SDS-PAGE; purified AbxC 0.5 mg/mL in PBS, 15 min, without or with increasing concentrations of H2O2 (or oxidised with diamide); 12% gel, non-reducing; disulfide-linked dimer against monomer

B1: AbxC (atypical BrxC; DR_1832), C-terminal His x 6 tag (enzyme, Deinococcus radiodurans, UniProt Q9RTD3 1-211, looked up)
chain: MTQGQDQVLSPLTTPDEVDQFLKDYPLAAVFKAGTCHKTMQGFGVLETFLQRYELPVGFIRVVDWRPASNHVAELTGLTHHSPQFILFKDGQAQYEVNNWDITPEALGPVFEQQVPQRSGAAQVDAGDSVEPYRQLMQAYLAGQLSDWAFQDQYVTMFRDDASLRSQREFELLSRLFGDPDAYHGGLHQLGAPQDRGDLKARVQSVLDQLG
notes: AbxC (DR_1832), Deinococcus radiodurans R1; monomer 23.7 kDa; single cysteine Cys36; also called putative homolog of BrxC (YtxJ); source: E. coli BL21-CodonPlus (DE3)-RP, purified (Ni-NTA, Superdex 75HR)
- stoichiometry N: 2

Reference: article PMC8301015, “Atypical Bacilliredoxin AbxC Plays a Role in Responding to Oxidative Stress in Radiation-Resistant Bacterium Deinococcus radiodurans” (Antioxidants, 2021)
